The values below come from US20220380459A1 (DRAGONFLY THERAPEUTICS, published 2022).

One may read the Kd as the concentration at which binding is half-saturated. Usually koff stands for the first-order rate constant of dissociation. The low end stands for a long-lived complex, the high end for a short-lived complex. A word on the kon: it is a measure of how fast the partners come together. Lower therefore signals slower complex formation.

Substitutions are numbered along the chain they refer to.

To fix the notation:
B1: ADI-11830 Fab (Fab, V domains shown)
VH: EVQLVESGGGLVQPGGSLRLSCAASGFTFSSYWMSWVRQAPGKGLEWVANINTDGSEVYYVDSVKGRFTISRDNAKNSLYLQMNSLRAEDTAVYYCARDVGPGIAYQGHFDYWGQGTLVTVSS
VL: DIQMTQSPSSLSASVGDRVTITCRASQVIYSYLNWYQQKPGKAPKLLIYAASSLKSGVPSRFSGSGSGTDFTLTISSLQPEDFATYYCQQVYDTPLTFGGGTKVEIK
notes: Fab fragment; also called Ab9
B2: ADI-10163 Fab (Fab, V domains shown)
VH: QVQLQESGPGLVKPSQTLSLTCTVSGGSISSGGYYWSWIRQHPGKGLEWIGSIYYSGSTYYNPSLKSRVTISVDTSKNQFSLKLSSVTAADTAVYYCARDRLDYSYNYGMDVWGQGTTVTVSS
VL: B1 VL with V28S, Y30S, A50G, K55Q, D93S, T94A, L96F
notes: Fab fragment; also called Ab17
B3: ADI-11812 Fab (Fab, V domains shown)
VH: QVQLVQSGAEVKKPGASVKVSCKASGYTFEIYYMHWVRQAPGQGLEWMGIINPSSGSTVYAQKFQGRVTMTRDTSTSTVYMELSSLRSEDTAVYYCARGAGYDDEDMDVWGKGTTVTVSS
VL: B1 VL with L11V, V28G, Y30D, Y32W, N34A, K55Q, V91A, Y92H, D93S, T94Y
notes: Fab fragment; also called Ab24
B4: ADI-11835 Fab (Fab, V domains shown)
VH: QLQLQESGPGLVKPSETLSLTCTVSGGSISSTDYYWGWIRQPPGKGLEWIGSIGYSGTYYNPSLKSRVTISVDTSKNQFSLKLSSVTAADTAVYYCARETAHDVHGMDVWGQGTTVTVSS
VL: EIVLTQSPATLSLSPGERATLSCRASHSVYSYLAWYQQKPGQAPRLLIYDASNRATGIPARFSGSGSGTDFTLTISSLEPEDFAVYYCQQYDNLPTFGGGTKVEIK
notes: Fab fragment; also called Ab10; I35
B5: ADI-11802 Fab (Fab, V domains shown)
VH: QVQLVQSGAEVKKPGASVKVSCKASGYTFSGYYMHWVRQAPGQGLEWMGMINPYGGSTRYAQKFQGRVTMTRDTSTSTVYMELSSLRSEDTAVYYCAREAADGFVGERYFDLWGRGTLVTVSS
VL: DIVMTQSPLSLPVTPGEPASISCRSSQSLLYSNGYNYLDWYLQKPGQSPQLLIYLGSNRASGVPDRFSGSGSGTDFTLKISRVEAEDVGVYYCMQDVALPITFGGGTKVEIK
notes: Fab fragment; also called Ab23
B6: ADI-10173 Fab (Fab, V domains shown)
VH: B5 VH with S30T, G31S, M50I, Y54S, R59T
VL: not shown
notes: Fab fragment; also called Ab22
B7: ADI-10177 Fab (Fab, V domains shown)
VH: EVQLVESGGGLVQPGGSLRLSCAASGFTFSSYWMSWVRQAPGKGLEWVANIKQDGSEKYYVDSVKGRFTISRDNAKNSLYLQMNSLRAEDTAVYYCARPLNAGELDVWGQGTMVTVSS
VL: DIQMTQSPSTLSASVGDRVTITCRASQSISSWLAWYQQKPGKAPKLLIYEASSLESGVPSRFSGSGSGTEFTLTISSLQPDDFATYYCQQLESYPLTFGGGTKVEIK
notes: Fab fragment; also called Ab2
B8: ADI-10159 Fab (Fab, V domains shown)
VH: EVQLVESGGGLVQPGGSLRLSCAASGFTFSSYGMSWVRQAPGKGLEWVANIKQDGSEKYYVDSVKGRFTISRDNAKNSLYLQMNSLRAEDTAVYYCAREGGPYYDSSGYFVYYGMDVWGQGTTVTVSS
VL: DIQMTQSPSTLSASVGDRVTITCRASQSISSWLAWYQQKPGKAPKLLIYDASSLESGVPSRFSGSGSGTEFTLTISSLQPDDFATYYCQQYESFPTFGGGTKVEIK
notes: Fab fragment; also called Ab1; G59

The first test deals with T1, human CD33 extracellular domain (human, UniProt P20138 18-259).
T1 construct: soluble monomeric ECD; also called human CD33 ECD; hCD33
The test can be described thus: SPR, Fab captured, 37C. Background: Surface plasmon resonance follows binding to a sensor surface in real time, without labels.
B1 displayed a Kd of 2.75 nM, a koff of 0.00547 s⁻¹ and a kon of 1.99e+06 M⁻¹ s⁻¹.

Molecule B2 registered an equilibrium dissociation constant (Kd) of 53.5 nM.

For B3, the Kd worked out at 1.23 nM, the koff was 0.000486 s⁻¹ and the kon stood at 396000 M⁻¹ s⁻¹.

In the case of B4, binding was put at a Kd of 0.53 nM, the koff came to 0.00143 s⁻¹ and the kon was determined as 2.6e+06 M⁻¹ s⁻¹.

Molecule B5 registered a Kd of 3.14 nM, a koff of 0.00154 s⁻¹ and a kon of 490000 M⁻¹ s⁻¹.

As for B6, the Kd was 58.8 nM.

B7 came in with a Kd of 11.4 nM, a koff of 0.00636 s⁻¹ and a kon of 558000 M⁻¹ s⁻¹.

On to B8, for which the Kd is 4.53 nM, the koff stood at 0.00195 s⁻¹ and the kon was determined as 429000 M⁻¹ s⁻¹.

For a further test, the target named is T1, human CD33 extracellular domain. The test can be described thus: SPR, Fab captured, 37C. This is another data set of the same source.
Method: (§1) Kinetics and affinity of a series of Fab fragments of anti-CD33 antibodies with different CD33 variants (human CD33 ECD, cyno CD33 ECD, V-domain of human CD33, C-domain or human CD33 and selected CD33 SNPs) were assessed by surface plasmon resonance using Biacore 8K instrument (GE Healthcare). Anti-Fab antibody was immobilized on a CMS chip using standard amine coupling chemistry. CD33 FABs were captured on the anti-Fab chip at a density of ˜100 RU. Solutions containing different concentrations of soluble monomeric CD33 or its domains were injected over the captured FABs and control surfaces at 30 μl/min at 37° C. Surfaces were regenerated between cycles by quick injection of 10 mM glycine, pH 1.8. To obtain kinetic rate constants double-referenced data were fit to a 1:1 interaction model using Biacore 8K Evaluation software (GE Healthcare). The equilibrium binding constant KD was determined by the ratio of binding rate constants kd/kₐ.
Take B1: the Kd stood at 2.75 nM, the koff is 0.00547 s⁻¹ and the kon amounted to 1.99e+06 M⁻¹ s⁻¹.

On to B2, for which the Kd stood at 53.5 nM.

In turn, B3 showed a Kd of 1.23 nM, a koff of 0.000486 s⁻¹ and a kon of 396000 M⁻¹ s⁻¹.

Take B4: binding was put at a Kd of 0.53 nM, the koff is 0.00143 s⁻¹ and the kon turned out to be 2.6e+06 M⁻¹ s⁻¹.

B5 registered a Kd of 3.14 nM, a koff of 0.00154 s⁻¹ and a kon of 490000 M⁻¹ s⁻¹.

On to B6, for which binding was characterised by a dissociation constant (Kd) of 58.8 nM.

For B7, binding was put at a Kd of 11.4 nM, the koff is 0.00636 s⁻¹ and the kon turned out to be 558000 M⁻¹ s⁻¹.

In turn, B8 came in with a Kd of 4.53 nM, a koff of 0.00195 s⁻¹ and a kon of 429000 M⁻¹ s⁻¹.

The next test deals with T2, V domain of human CD33 (human, UniProt P20138 18-139, limits assumed).
T2 construct: recombinant, fully glycosylated V domain; also called Human CD33 V domain
The test can be described thus: SPR, Fab captured, 37C.
Method: as §1
Turning to B1, binding was characterised by a dissociation constant (Kd) of 4.5 nM, the koff turned out to be 0.0299 s⁻¹ and the kon amounted to 6.67e+06 M⁻¹ s⁻¹.

B3: the binding result was “no binding”.

B4 displayed a Kd of 1.14 nM, a koff of 0.00868 s⁻¹ and a kon of 7.6e+06 M⁻¹ s⁻¹.

For the molecule B5, binding was put at a Kd of 3.2 nM, the koff amounted to 0.00435 s⁻¹ and the kon worked out at 1.34e+06 M⁻¹ s⁻¹.

For the molecule B7, the Kd was 54.8 nM, the koff is 0.0857 s⁻¹ and the kon came out at 1.56e+06 M⁻¹ s⁻¹.

As to B8, the Kd was found to be 5.56 nM, the koff was found to be 0.005 s⁻¹ and the kon turned out to be 905000 M⁻¹ s⁻¹.

In a further test the target is T1, human CD33 extracellular domain. The test can be described thus: SPR, Fab captured, 37C. The source holds these as a separate data set.
In the case of B1, the Kd amounted to 2.75 nM, the koff turned out to be 0.00547 s⁻¹ and the on-rate (kon) amounted to 1.99e+06 M⁻¹ s⁻¹.

For B2, the Kd is 53.5 nM.

B3 had a Kd of 1.23 nM, a koff of 0.000486 s⁻¹ and a kon of 396000 M⁻¹ s⁻¹.

B4: binding was put at a Kd of 0.53 nM, the koff stood at 0.00143 s⁻¹ and the kon was 2.6e+06 M⁻¹ s⁻¹.

B5 gave a Kd of 3.14 nM, a koff of 0.00154 s⁻¹ and a kon of 490000 M⁻¹ s⁻¹.

Turning to B6, the Kd stood at 58.8 nM.

The molecule B7 came in with a Kd of 11.4 nM, a koff of 0.00636 s⁻¹ and a kon of 558000 M⁻¹ s⁻¹.

As for B8, the Kd came to 4.53 nM, the koff came out at 0.00195 s⁻¹ and the kon was 429000 M⁻¹ s⁻¹.

Another test deals with T3, cyno CD33 extracellular domain (Cynomolgus/Rhesus (cyno)).
T3 construct: soluble monomeric ECD; also called cyno CD33 ECD
The test can be described thus: SPR, Fab captured, 37C.
B1: the Kd was found to be 27.8 nM, the koff stood at 0.0364 s⁻¹ and the kon came out at 1.34e+06 M⁻¹ s⁻¹.

Turning to B2, the binding result is on record as “no binding (tested: 100 nM)”.

Regarding B3, the binding result is “no binding (tested: 100 nM)”.

The molecule B4 returned a Kd of 6.86 nM, a koff of 0.0189 s⁻¹ and a kon of 2.76e+06 M⁻¹ s⁻¹.

Regarding B5, the binding result is “no binding (tested: 100 nM)”.

Consider B6, for which the binding result is given as “no binding (tested: 100 nM)”.

As for B7, the affinity, expressed as Kd, was 21.4 nM; the koff worked out at 0.00754 s⁻¹; the kon turned out to be 353000 M⁻¹ s⁻¹.

The molecule B8 displayed a Kd of 74.9 nM, a koff of 0.0436 s⁻¹ and a kon of 528000 M⁻¹ s⁻¹.

In the next test the target is T4, C domain of human CD33 (human, UniProt P20138 140-259, limits assumed).
T4 construct: recombinant C domain
The test can be described thus: SPR, Fab captured, 37C.
Method: as §1
The binding interface between the Fab fragment of each CD33 antibody to CD33 was mapped.
As for B1, the binding result is on record as “no binding”.

Consider B2, for which the binding result is listed as “no binding”.

For the molecule B3, the binding result is given as “no binding”.

For the molecule B4, the binding result is listed as “no binding”.

Consider B5, for which the binding result was “no binding”.

As for B6, the binding result is “no binding”.

Take B7: the binding result is “no binding”.

Turning to B8, the binding result is on record as “no binding”.

For the next test, the target named is T2, V domain of human CD33. The test can be described thus: SPR, Fab captured, 37C. The source holds these as a separate data set.
Method: as §1
(§2) The ability of anti-CD33 antibodies to recognize glycosylated CD33 was assayed. […] De-glycosylation status was confirmed by a shift on SDS-PAGE and MS.
On to B1, for which binding was put at a Kd of 4.5 nM, the koff is 0.0299 s⁻¹ and the kon worked out at 6.67e+06 M⁻¹ s⁻¹.

B4 had a Kd of 1.14 nM, a koff of 0.00868 s⁻¹ and a kon of 7.6e+06 M⁻¹ s⁻¹.

B5: binding was characterised by a dissociation constant (Kd) of 3.2 nM, the koff stood at 0.00435 s⁻¹ and the on-rate constant (kon) worked out at 1.34e+06 M⁻¹ s⁻¹.

In turn, B7 gave a Kd of 54.8 nM, a koff of 0.0857 s⁻¹ and a kon of 1.56e+06 M⁻¹ s⁻¹.

Take B8: the Kd stood at 5.56 nM, the koff worked out at 0.005 s⁻¹ and the kon worked out at 905000 M⁻¹ s⁻¹.

For another test, the target named is T5, deglycosylated V domain of human CD33 (human, UniProt P20138 18-139, limits assumed, N-glycans removed by PNGase).
T5 construct: V domain deglycosylated by PNGase before testing; also called deglycosylated V CD33
The test can be described thus: SPR, Fab captured, 37C.
Method: as §1, §2
Molecule B1 yielded a Kd of 3.95 nM, a koff of 0.0269 s⁻¹ and a kon of 6.8e+06 M⁻¹ s⁻¹.

Molecule B2 came in with a Kd of 152 nM.

For the molecule B3, the binding result is “no binding”.

B4 displayed a Kd of 0.98 nM, a koff of 0.00779 s⁻¹ and a kon of 7.94e+06 M⁻¹ s⁻¹.

B5 returned a Kd of 2.65 nM, a koff of 0.00417 s⁻¹ and a kon of 1.57e+06 M⁻¹ s⁻¹.

For the molecule B6, binding was put at a Kd of 200 nM.

B7 returned a Kd of 38.2 nM, a koff of 0.0701 s⁻¹ and an association rate constant (kon) of 1.88e+06 M⁻¹ s⁻¹.

In turn, B8 yielded a Kd of 12.3 nM, a koff of 0.012 s⁻¹ and a kon of 978000 M⁻¹ s⁻¹.

The next test addresses T1, human CD33 extracellular domain. The test can be described thus: SPR, Fab captured, 37C. This is another data set of the same source.
Method: as §1
Affinity of 29 Fab fragments binding to human and cyno CD33 ECD were assayed by Biacore analysis.
For B2, binding was characterised by a dissociation constant (Kd) of 53.5 nM.

B3 showed a Kd of 1.23 nM and a dissociation rate constant (koff) of 0.000486 s⁻¹.

With B5, binding was characterised by a dissociation constant (Kd) of 3.14 nM and the koff was determined as 0.00154 s⁻¹.

In turn, B6 gave a Kd of 58.8 nM.
